In PMC7156744, “CdbA is a DNA-binding protein and c-di-GMP receptor important for nucleoid organization and segregation in Myxococcus xanthus” (Nature Communications, 2020):

Tests used:
CdbA = target: T1, CdbA (Myxococcus xanthus, UniProt Q1D489); experiment: ITC (also DRaCALA, SEC, HDX-MS; EMSA shows inhibition of DNA binding)
T1 construct: gene MXAN_4361; full-length CdbA-His6 (67 amino acids), tetramer

[1] = target: T2, CdbA-His6 (Myxococcus xanthus DK1622) (UniProt Q1D489); experiment: EMSA; details: 10x buffer: 380 mM HEPES, 380 mM NaCl, 50 mM MgCl2, 50% glycerol, 10 mM DTT, 15 ng/ul poly(dI-dC), 50 ng probe, 30 C 30 min, 10% PAGE 1x TBE 4 C, pH not …
T2 sequence: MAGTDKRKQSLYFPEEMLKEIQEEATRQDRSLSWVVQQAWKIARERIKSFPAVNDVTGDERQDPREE

[2] = target: CdbA-His6 (C-terminally His6-tagged CdbA, MXAN_4361) (Myxococcus xanthus); experiment: crystal structure; crystal form one (dimeric form) of full-length CdbA-His6, 0.1 M MgCl2, 0.1 M HEPES-NaOH pH 7.0, 15% PEG 4000; SAD phasing with a Pt derivative; residues 5-52 traced
[3] = target: CdbA-His6 (C-terminally His6-tagged CdbA, MXAN_4361) (Myxococcus xanthus); experiment: SEC; analytical SEC, 200 µM CdbA wild-type or variant without c-di-GMP, Superdex S200 Increase 10/300 GL, SEC buffer (20 mM HEPES-Na pH 7.5, 200 mM NaCl, 20 mM MgCl2, 20 mM KCl), 4 °C; oligomer size from apparent molecular mass
[4] = target: CdbA-His6 (C-terminally His6-tagged CdbA, MXAN_4361) (Myxococcus xanthus); experiment: crystal structure; crystal form one (dimeric form) of full-length CdbA-His6, 0.1 M MgCl2, 0.1 M HEPES-NaOH pH 7.0, 15% PEG 4000; SAD phasing with a Pt derivative; residues 5-52 traced; remark: listed apart in the source
[5] = target: CdbA-His6 (C-terminally His6-tagged CdbA, MXAN_4361) (Myxococcus xanthus); experiment: crystal structure; crystal form two (tetrameric form) of full-length CdbA-His6, 0.1 M sodium malonate, 0.1 M HEPES-NaOH pH 7.0, 30% polyacrylic acid sodium salt 2100; molecular replacement; three copies in the asymmetric unit
[6] = target: CdbA-His6 (C-terminally His6-tagged CdbA, MXAN_4361) (Myxococcus xanthus); experiment: SEC; analytical SEC, 200 µM CdbA incubated with 200 µM c-di-GMP for 1 minute at 25 °C, Superdex S200 Increase 10/300 GL, SEC buffer, 4 °C; oligomer size from apparent molecular mass
[7] = target: CdbA^K8A/S10A-His6 (Myxococcus xanthus); experiment: SEC; analytical SEC, 200 µM CdbA wild-type or variant without c-di-GMP, Superdex S200 Increase 10/300 GL, SEC buffer (20 mM HEPES-Na pH 7.5, 200 mM NaCl, 20 mM MgCl2, 20 mM KCl), 4 °C; oligomer size from apparent molecular mass
[8] = target: CdbA^R27A/R30A-His6 (Myxococcus xanthus); experiment: as above
[9] = tested on: CdbA-His6 (Myxococcus xanthus DK1622); experiment: EMSA; details: 10x buffer: 380 mM HEPES, 380 mM NaCl, 50 mM MgCl2, 50% glycerol, 10 mM DTT, 15 ng/ul poly(dI-dC), 50 ng probe, 30 C 30 min, 10% PAGE 1x TBE 4 C, pH not …

**Q.** For `Nc1nc2c(ncn2[C@@H]2O[C@@H]3CO[P@](=O)(O)O[C@H]4[C@@H](O)[C@H](n5cnc6c(=O)[nH]c(N)nc65)O[C@@H]4CO[P@](=O)(O)O[C@H]3[C@H]2O)c(=O)[nH]1` [c-di-GMP], which Kd (CdbA) is on record?
**A.** ~0.083 µM

**Q.** How did the Kd [1] turn out when “ACTTGGGTCTCCGGGGCGGATTCGGGGTGACGACCTGAACACACCTGGGCCGTTATCCGACAGACTCCCAAGTGGGTCAACGGTTTCCAAGGACTCATTCCGAGGTCGCACGGTCCGTCCCCGTGCTCGTCCAGTTGCACGTAAGCTGTGCAACCATGCGCGAAAAAGGAAACGCCCCGGACTCCACGAGGAAGTCCGGGGCGCTTCGGAAAGAGGGACCGCCTAGAGAAATCTCCAGGCGGGCCCGTGG (double strand) [cdbAB promoter]” was run?
**A.** 0.9 µM

**Q.** With “CdbA-His6 (C-terminally His6-tagged CdbA, MXAN_4361) (natural protein)” as the compound, how does the stoichiometry N [2] read?
**A.** 2

**Q.** What about the stoichiometry N [3] of the same compound?
**A.** 4

**Q.** What about the stoichiometry N [4] of the same compound?
**A.** 4

**Q.** And the stoichiometry N [5]?
**A.** 4

**Q.** And the stoichiometry N [6]?
**A.** 4

**Q.** With CdbA^K8A/S10A-His6 (natural protein) as the compound, how does the stoichiometry N [7] read?
**A.** 4

**Q.** Which stoichiometry N [8] does the source give for CdbA^R27A/R30A-His6 (natural protein) here?
**A.** 4

**Q.** How did the Kd [1] turn out when “GACACACCTTCTCCGAGCGGCTTGCGGTGTTCGGGGGACTCGGGCTTGCGCTCGGGTTCGGCGCGGGCCTGCGCGGAGACGCGGAAGCCTTCACTGGGGTTCAGTGGATCTTCCCGGTCGGATCGAAGTGAATTTCTTGCGATCAGACCGACTTGTGAGAATGTACGCGCATCTACAGGAGGTCGCGCACATGGACATGAATCCCCGTCTTACCTCAGTGGTCTTCCGGCTCAACCGCGAGAAGCTCGAC (double strand) [MXAN_4058 promoter, two repeats mutated]” was run?
**A.** 2.5 µM

**Q.** “GACACACCTTCTCCGAGCGGCTTGCGGTGTTCGGGGGACTCGGGCTTGCGCTCGGGTTCGGCGCGGGCCTGCGCGGAGACGCGGAAGCCTTCACTGGGGTTCAGTGGATCTTCCCGGTCGGATCGAAGTGAATTTCTTGCGATCAGACCGACTTGTGAGAATGTGTGCGCATCTACAGGAGGTCGCGCACATGGACATGAATCCCCGTCTTACCTCAGTGGTCTTCCGGCTCAACCGCGAGAAGCTCGAC (double strand) [MXAN_4058 promoter, one repeat mutated]” was tested. Which Kd [1] did it give?
**A.** 1.1 µM

**Q.** “GACACACCTTCTCCGAGCGGCTTGCGGTGTTCGGGGGACTCGGGCTTGCGCTCGGGTTCGGCGCGGGCCTGCGCGGAGACGCGGAAGCCTTCACTGGGGTTCAGTGGATCTTCCCGGTCGGATCGAAGTGAATTTCTTGCGATCAGACCGACTTGTGAGAATGTGTGCGCATCTGTAGGAGGTCGCGCACATGGACATGAATCCCCGTCTTACCTCAGTGGTCTTCCGGCTCAACCGCGAGAAGCTCGAC (double strand) [peak rank #1 fragment (MXAN_4058 promoter), WT]” was tested. Which Kd [1] did it give?
**A.** 0.4 µM

**Q.** Which Kd [9] does the source give for cdbAB promoter here?
**A.** 0.9 µM

**Q.** For no-peak control fragment, which Kd [9] is on record?
**A.** 4 µM

**Q.** Which Kd [9] does the source give for “peak rank #1 fragment (MXAN_4058 promoter), WT” here?
**A.** 0.4 µM
